This note sets out measurements from IntAct's records for PubMed 21828050.

B1: Kelch-like protein 7 (Homo sapiens), Q8IXQ5 (parent)
chain: MAASGVEKSSKKKTEKKLAAREEAKLLAGFMGVMNNMRKQKTLCDVILMVQERKIPAHRVVLAAASHFFNLMFTTNMLESKSFEVELKDAEPDIIEQLVEFAYTARISVNSNNVQSLLDAANQYQIEPVKKMCVDFLKEQVDASNCLGISVLAECLDCPELKATADDFIHQHFTEVYKTDEFLQLDVKRVTHLLNQDTLTVRAEDQVYDAAVRWLKYDEPNRQPFMVDILAKVRFPLISKNFLSKTVQAEPLIQDNPECLKMVISGMRYHLLSPEDREELVDGTRPRRKKHDYRIALFGGSQPQSCRYFNPKDYSWTDIRCPFEKRRDAACVFWDNVVYILGGSQLFPIKRMDCYNVVKDSWYSKLGPPTPRDSLAACAAEGKIYTSGGSEVGNSALYLFECYDTRTESWHTKPSMLTQRCSHGMVEANGLIYVCGGSLGNNVSGRVLNSCEVYDPATETWTELCPMIEARKNHGLVFVKDKIFAVGGQNGLGGLDNVEYYDIKLNEWKMVSPMPWKGVTVKCAAVGSIVYVLAGFQGVGRLGHILEYNTETDKWVANSKVRAFPVTSCLICVVDTCGANEETLET

In the first experiment the parent is B1. The following applies: with cul3_human CUL3, Q13618.
With MAASGVEKSSKKKTEKKLAAREEAKLLAGFMGVMNNMRKQKTLCDVILMVQERKIPAHRVVLAAASHFFNLMFTTNMLESKSFEVELKDAEPDIIEQLVEFAYTARISVNSNNVQSLLDAANQYQIEPVKKMCVDFLKEQVDASNCLGISVLTECLDCPELKATADDFIHQHFTEVYKTDEFLQLDVKRVTHLLNQDTLTVRAEDQVYDAAVRWLKYDEPNRQPFMVDILAKVRFPLISKNFLSKTVQAEPLIQDNPECLKMVISGMRYHLLSPEDREELVDGTRPRRKKHDYRIALFGGSQPQSCRYFNPKDYSWTDIRCPFEKRRDAACVFWDNVVYILGGSQLFPIKRMDCYNVVKDSWYSKLGPPTPRDSLAACAAEGKIYTSGGSEVGNSALYLFECYDTRTESWHTKPSMLTQRCSHGMVEANGLIYVCGGSLGNNVSGRVLNSCEVYDPATETWTELCPMIEARKNHGLVFVKDKIFAVGGQNGLGGLDNVEYYDIKLNEWKMVSPMPWKGVTVKCAAVGSIVYVLAGFQGVGRLGHILEYNTETDKWVANSKVRAFPVTSCLICVVDTCGANEETLET [A153T], the “effect of a mutation on the interaction” value is “disrupting interaction”.

With MAASGVEKSSKKKTEKKLAAREEAKLLAGFMGVMNNMRKQKTLCDVILMVQERKIPAHRVVLAAASHFFNLMFTTNMLESKSFEVELKDAEPDIIEQLVEFAYTARISVNSNNVQSLLDAANQYQIEPVKKMCVDFLKEQVDASNCLGISVLVECLDCPELKATADDFIHQHFTEVYKTDEFLQLDVKRVTHLLNQDTLTVRAEDQVYDAAVRWLKYDEPNRQPFMVDILAKVRFPLISKNFLSKTVQAEPLIQDNPECLKMVISGMRYHLLSPEDREELVDGTRPRRKKHDYRIALFGGSQPQSCRYFNPKDYSWTDIRCPFEKRRDAACVFWDNVVYILGGSQLFPIKRMDCYNVVKDSWYSKLGPPTPRDSLAACAAEGKIYTSGGSEVGNSALYLFECYDTRTESWHTKPSMLTQRCSHGMVEANGLIYVCGGSLGNNVSGRVLNSCEVYDPATETWTELCPMIEARKNHGLVFVKDKIFAVGGQNGLGGLDNVEYYDIKLNEWKMVSPMPWKGVTVKCAAVGSIVYVLAGFQGVGRLGHILEYNTETDKWVANSKVRAFPVTSCLICVVDTCGANEETLET [A153V], the “effect of a mutation on the interaction” value is “disrupting interaction”.

The next experiment covers variants of B1. The settings on record: with cul3_human CUL3, Q13618. The source holds these as a separate data set.
MAASGVEKSSKKKTEKKLAAREEAKLLAGFMGVMNNMRKQKTLCDVILMVQERKIPAHRVVLAAASHFFNLMFTTNMLESKSFEVELKDAEPDIIEQLVEFAYTARISVNSNNVQSLLDAANQYQIEPVKKMCVDFLKEQVDASNCLGISVLVECLDCPELKATADDFIHQHFTEVYKTDEFLQLDVKRVTHLLNQDTLTVRAEDQVYDAAVRWLKYDEPNRQPFMVDILAKVRFPLISKNFLSKTVQAEPLIQDNPECLKMVISGMRYHLLSPEDREELVDGTRPRRKKHDYRIALFGGSQPQSCRYFNPKDYSWTDIRCPFEKRRDAACVFWDNVVYILGGSQLFPIKRMDCYNVVKDSWYSKLGPPTPRDSLAACAAEGKIYTSGGSEVGNSALYLFECYDTRTESWHTKPSMLTQRCSHGMVEANGLIYVCGGSLGNNVSGRVLNSCEVYDPATETWTELCPMIEARKNHGLVFVKDKIFAVGGQNGLGGLDNVEYYDIKLNEWKMVSPMPWKGVTVKCAAVGSIVYVLAGFQGVGRLGHILEYNTETDKWVANSKVRAFPVTSCLICVVDTCGANEETLET [A153V]: the “effect of a mutation on the interaction” value is listed as “decreasing interaction”.
